Assays:
[1] = tested on: RSV pre-F antibody (3C12); assay: Binding of epitope Φ of RSV F antigen mutants by flow cytometry; conditions: for RSV pre-F antibody (3C12) Epitope Φ (%): binding rate, 293T cells 16 h after mRNA-LNP transfection; for Φ/II (%): ratio of epitope Φ (3C12) to epitope II (11A9) binding rate
Description: (§1) To investigate whether the RSV F antigen mutants have pre-fusion epitopes, an RSV pre-F antibody (3C12) (specifically binding to the RSV pre-F epitope […]) and an RSV F antibody (11A9) (binding to pre-F and post-F epitopes II) were detected by flow cytometry in this example, and RSV F protein mutants in the pre-F conformation were expected to bind to the antibodies tested.
(§2) • 293T cells (purchased from ATCC cell bank); RSV pre-F antibody (3C12), epitope […] (Novoprotein, Cat. No.: DA101); RSV F antibody (11A9), epitope II (Novoprotein, Cat. No.: DA091); • experimental groups: mRNA vaccines corresponding to the expressed antigens in Example 3;
(§3) • (1) Cell transfection: 293T cells were seeded at 1.3×10^5 cells/well in a 24-well plate. The next day, mRNA-LNP samples (containing 300 ng of mRNA) were added directly to the cells, and the mixture was uniformly mixed. • (2) Cell collection: The cells were taken out of the incubator after 16 h of transfection, the medium was pipetted off, 500 μL of 0.1% BSA solution was pipetted to wash the medium remaining in the well plate, taking care not to resuspend the cells, and the 0.1% BSA solution was pipetted off. 500 μL of 0.1% BSA solution was added to each well, and the cells were pipetted and transferred to a 1.5 mL centrifuge tube. • (3) Centrifugation: The cells were harvested by centrifugation at 400 g for 5 min at 4° C. in the dark, and the supernatant was discarded. • (4) Straining: 50.6 μL of RSV fluorescent antibody diluent was added to each of the control sample and the test samples to resuspend the cells, and the samples were incubated at 4° C. for 2 h in the dark. • (5) Cleaning: After the incubation was completed, 500 μL of 0.1% BSA solution was added to each tube, the cells were harvested by centrifugation at 400 g for 5 min at 4° C. in the dark, and the supernatant was discarded. This operation was repeated three times. • (6) Resuspension of cells: 200 μL of 0.1% BSA solution was added to each sample, and the cells were carefully pipetted to prepare a cell suspension. • (7) Detection on flow cytometer: The […] of RSV F mutants to antibodies were measured using flow cytometry, with 1×10^4 cells detected in each measurement.
(§4) The RSV pre-F antibody (3C12) used in this example specifically binds to the RSV pre-F epitope Φ, and the RSV F antibody (11A9) binds to the pre-F and post-F epitopes II. Whether the pre-fusion conformations of the RSV F mutants are stable can be further determined by detecting the binding of the epitope Φ and the epitope II on the mutants to corresponding epitopes of antibodies 3C12 and 11A9, respectively, by flow cytometry.

[2] = tested on: RSV F antibody (11A9); assay: Binding of epitope II of RSV F antigen mutants by flow cytometry; conditions: for RSV F antibody (11A9) Epitope II (%): binding rate, 293T cells 16 h after mRNA-LNP transfection
Description: as §1, §2, §3, §4

[3] = tested on: RSV pre-F antibody (3C12); format: physicochemical; conditions: ELISA binding to 3C12; for Stress resistance parameter, Osmotic pressure (mM) 3000: high osmotic pressure 3000 mM; for Stress resistance parameter, Osmotic pressure (mM) 3000 / Stress resistance parameter, Osmotic pressure (mM) 10: room temperature; for Stress resistance parameter, Osmotic pressure (mM) 3000 / Stress resistance parameter, Osmotic pressure (mM) 10 / Stress resistance parameter, pH 3.5 / Stress resistance parameter, pH 10: 60 min; for Stress resistance parameter, Temperature (° C.) 50: incubation at 50° C. for 60 min; for Stress resistance parameter, Osmotic pressure (mM) 10: low osmotic pressure 10 mM; for Stress resistance parameter, pH 3.5: pH 3.5, room temperature; for Stress resistance parameter, pH 10: pH 10, room temperature; for Stress resistance parameter, Temperature (° C.) 4: storage at 4° C. for one week
Description: To investigate the stability of the RSV F antigen mutants under different pH, temperature, osmotic pressure and other conditions, the mutants were subjected to stress tests under different treatment conditions in this example.
• 293T cells (purchased from ATCC cell bank); • Primary antibody: RSV pre-F antibody (3C12), epitope Φ (purchased from Suzhou Novoprotein Scientific Co., Ltd. (hereinafter referred to as Novoprotein), Cat. No.: DA101); • Standard: RSV pre-F trimer protein (Novoprotein, Cat. No.: DRA230); • Secondary antibody: peroxidase AffiniPure goat anti-human IgG (H+L) (purchased from Yeasen Biotechnology (Shanghai) Co., Ltd. (hereinafter referred to as Yeasen), Cat. No.: N/A); • Experimental group: mRNA vaccines after screening in Example 4;
Coating: A 96-well microplate was coated with a working solution and incubated at 2 to 8° C. for 16 to 20 h.
Plate washing: Phosphate buffered saline PBST was added to each well, and the plate was washed 5 times using a plate washer and patted dry on absorbent paper.
Blocking: After a blocking solution was added, the […] were placed on a constant temperature microplate shaker and incubated at 400 rpm for 1.5 h at 37° C.
Plate washing: PBST was added to each well, and the plate was washed 5 times using a plate washer and patted dry on absorbent paper.
Primary antibody incubation: A primary antibody dilution was added to each well, and the plate was sealed with a sealing film, and then incubated at 400 rpm for 1.5 h at 37° C.
Secondary antibody incubation: A secondary antibody dilution was added to each well, and the plate was sealed with a sealing film, and then incubated at 400 rpm for 45 min at 37° C.
Color development: A chromogenic solution was added, and the plate was sealed with a sealing film, and then placed on a constant temperature microplate shaker and incubated at 400 rpm for 25 min at 37° C.
Reaction stopping: After the color development was completed, a stop buffer was added at […] to the microplate to stop the reaction.
Plate reading: Absorbance values (OD values) were read within 5 min using a multimode microplate reader, with dual wavelengths of 450 nm and 630 nm set.
In this example, stability screening of the mutants through different treatment conditions was defined as a stress test, including storage at 4° C. for one week; incubation at 50° C. for 60 min; treatment at room temperature under low osmotic pressure and high osmotic pressure conditions for 60 min; treatment at room temperature under acid and base conditions for 60 min. The binding of the mutants to the RSV pre-F antibody (3C12) recognizing the epitope Φ was detected by ELISA.

Molecule	RSV pre-F antibody (3C12) Epitope Φ (%) ([1]; flow cytometry)	RSV pre-F antibody (3C12) Epitope Φ (%) binding rate ([1]; flow cytometry, epitope Φ, antibody 3C12)	Φ/II (%) [1]	RSV F antibody (11A9) Epitope II (%) [2]	RSV F antibody (11A9) Epitope II (%) binding rate ([2]; epitope II, antibody 11A9)	Stress resistance parameter, Osmotic pressure (mM) 3000 [3]	Stress resistance parameter, Temperature (° C.) 50 [3]	Stress resistance parameter, Osmotic pressure (mM) 10 [3]	Stress resistance parameter, pH 3.5 [3]	Stress resistance parameter, pH 10 [3]	Stress resistance parameter, Temperature (° C.) 4 [3]
RSVA2 (138251)-wt: wild sequence of RSV A2 F protein, full length (1 to 574 aa) [reference compound]	1.0%	1.0%	4.3%	23.1%	23.1%						
YK-RSV-005 (protein) QNITEEFYQSTCSAVSKGYLGALRTGWYTSVITIELSNIKENKCNGTDAKVKLIKQELDKYKNAVTDLQLLMQSTPATGSGSAICSGVAVCKVLHLEGEVNKIKSALLSTNKAVVSLSNGVSVLTIKVLDLKNYIDKQLLPIVNKQSCSISPIETVIEFQQKNNRLLEITREFSVNAGVTTPVSTYMLTNSELLSLINDMPITNDQKKLMSNNVQIVRQQSYSIMCIIKEEVLAYVVQLPLYGVIDTPCWKLHTSPLCTTNTKEGSNICLTRTDRGWYCDNAGSVSFFPQAETCKVQSNRVFCDTMNSRTLPSEVNLCNVDIFNPKYDCKIMTSKTDVSSSVITSLGAIVSCYGKTKCTASNKNRGIIKTFSNGCDYVSNKGVDTVSVGNTLYCVNKQEGQSLYVKGEPIINFYDPLVFPSSEFDASISQVNEKINQSLAFIRKSDELLHNVNAGKSTTNIMITTIIIVIIVILLSLIAVGLLLY			96.2%			0.47 ± 0.08	0.44 ± 0.06	0.57 ± 0.00	0.64 ± 0.20	0.88 ± 0.14	0.55 ± 0.09
YK-RSV-017 (protein) QNITEEFYQSTCSAVSKGYLGALRTGWYTCVILIELSNIKENKCNGTDAKVKLIKQELDKYKNAVTDLQLLMQSTPATGSGSAICSGVAVSKVLHLEGEVNKIKSALLSTNKAVVSLSNGVSVCTFKVLDLKNYIDKQLLPIVNKQSCSIPNIETVIEFQQKNNRLLEITREFSVNAGVTTPVSTYMLTNSELLSLINDMPITNDQKKLMSNNVQIVRQQSYSIMSIIKEEVLAYVVQLPLYGVIDTPCWKLHTSPLCTTNTKEGSNICLTRTDRGWYCDNAGSVSFFPQAETCKVQSNRVFCDTMNSRTLPSEVNLCNVDIFNPKYDCKIMTSKTDVSSSVITSLGAIVSCYGKTKCTASNKNRGIIKTFSNGCDYVSNKGVDTVSVGNTLYCVNKQEGQSLYVKGEPIINFYDPLVFPSSEFDASISQVNEKINQSLAFIRKSDELLHNVNAGKSTTNIMITTIIIVIIVILLSLIAVGLLLY			96.5%			0.46 ± 0.06	0.60 ± 0.04	0.59 ± 0.03	0.76 ± 0.11	0.93 ± 0.06	0.35 ± 0.07
YK-RSV-014 (protein) QNITEEFYCSTCSAVSKGYLGALRTGWYTSVITIELSNIKENKCNGTDAKVKLIKQELDKYKNAVTDLQLLMQSTPATGSGSAICSGVAVSKVLHLEGEVNKIKSALLSTNKAVVSLSNGVSVLTIKVLDLKNYIDKQLLPIVNKQSCSIPNIETVIEFQQKNNRLLEITREFSVNAGVTTPVSTYMLTNSELLSLINDMPITNDQKKLMSNNVQIVRQQSYSIMSIIKEEVLAYVVQLPLYGVIDTPCWKLHTSPLCTTNTKEGSNICLTRTDRGWYCDNAGSVSFFPQAETCKVQSNRVFCDTMNSRTLPSEVNLCNVDIFNPKYDCKIMTSKTDVSSSVITSLGAIVSCYGKTKCTASNKNRGIIKTFSNGCDYVSNKGVDTVSVGNTLYCVNKQEGQSLYVKCEPIINFYDPLVFPSSEFDASISQVNEKINQSLAFIRKSDELLHNVNAGKSTTNIMITTIIIVIIVILLSLIAVGLLLY	0.0%		0.0%	0.1%							
YK-RSV-038 (protein) QNITEEFYQSTCSAVSKGYLGALRTGWYTCVITIELSNIKENKCNGTDAKVKLIKQELDKYKNAVTDLQLLMQSTPATGSGSAIASGVAVSKVLHLEGEVNKIKSALLSTNKAVVSLSNGVCVLTFKVLDLKNYIDKQLLPILNKQSCSIPNIETVIEFQQKNNRLLEITREFSVNAGVTTPVSTYMLTNSELLSLINDMPITNDQKKLMSNNVQIVRQQSYSIMSIIKEEVLAYVVQLPLYGVIDTPCWKLHTSPLCTTNTKEGSNICLTRTDRGWYCDNAGSVSFFPQAETCKVQSNRVFCDTMNSRTLPSEVNLCNVDIFNPKYDCKIMTSKTDVSSSVITSLGAIVSCYGKTKCTASNKNRGIIKTFSNGCDYVSNKGVDTVSVGNTLYYVNKQEGQSLYVKGEPIINFYDPLVFPSDEFDASISQVNEKINQSLAFIRKSDELLHNVNAGKSTTNIMITTIIIVIIVILLSLIAVGLLLY			94.8%			0.55 ± 0.13	0.70 ± 0.10	0.74 ± 0.08	0.88 ± 0.17	0.82 ± 0.26	0.32 ± 0.08
YK-RSV-056 (protein) QNITEEFYQSTCSAVSKGYLGALRTGWYTSVITIELSNIKENKCNGTDAKVKLIKQELDKYKNAVTDLQLLMQSTPATGSGSCIASGVAVSKVLHLEGEVNKIKSALLSTNKAVVSLSNGVSVLTFKVLDLKNYIDKQLLPILNKQSCSIPNIETVIEFQQKNNRLLEITREFSVNAGVTTPVSTYMLTNSELLSLINDMPITNDQKKLMSNNVQIVRQQSYCIMSIIKEEVLAYVVQLPLYGVIDTPCWKLHTSPLCTTNTKEGSNICLTRTDRGWYCDNAGSVSFFPQAETCKVQSNRVFCDTMNSRTLPSEVNLCNVDIFNPKYDCKIMTSKTDVSSSVITSLGAIVSCYGKTKCTASNKNRGIIKTFSNGCDYVSNKGVDTVSVGNTLYYVNKQEGQSLYVKGEPIINFYDPLVFPSDEFDASISQVNEKINQSLAFIRKSDELLHNVNAGKSTTNIMITTIIIVIIVILLSLIAVGLLLY			97.4%			0.44 ± 0.08	0.91 ± 0.09	0.82 ± 0.07	0.64 ± 0.12	0.72 ± 0.14	0.69 ± 0.10
